The values below come from patent US20140371142A1 (Johns Hopkins, published 2014).

B3: FLAG epitope-tagged mouse myonectin (CTRP15) (ligand)
chain: LGVPESAEPVGTHARPQPPGAELPAPPANSPPEPTIAHAHSVDPRDAWMLFVKQSDKGINSKRRSKARRLKLGLPGPPGPPGPQGPPGPFIPSEVLLKEFQLLLKGAVRQRESHLEHCTRDLTTPASGSPSRVPAAQELDSQDPGALLALLAATLAQGPRAPRVEAAFHCRLRRDVQVDRRALHELGIYYLPEVEGAFHRGPGLNLTSGQYTAPVAGFYALAATLHVALTEQPRKGPTRPRDRLRLLICIQSLCQHNASLETVMGLENSSELFTISVNGVLYLQAGHYTSVFLDNASGSSLTVRSGSHFSAILLGLDYKDDDDK
modifications: N-linked glycans (sites not given)
notes: Secreted into the supernatant of transfected HEK 293T cells; Disulfide-linked dimer on a non-reducing gel and multimeric on a native gel; also called FLAG-tagged myonectin; recombinant myonectin

For data set [1], the target named is B3. As to the kind of experiment: co-expression in HEK 293T cells, immunoprecipitation then immunoblot of supernatants (FLAG / HA tags). A general note: Immunoblotting shows a protein as a band on a membrane.
Data set [2] deals with the molecule itself. As to the kind of experiment: native gel immunoblot, FIG. 4 legend (self-association). As to the method:
Native gel electrophoresis. Non-denaturing, non-reducing gel electrophoresis was carried out as previously described (PLoS One, 5: e12765).
Myonectin (CTRP15) protein forms disulfide-linked oligomers and heteromeric complexes with other CTRPs. Consistent with the presence of a signal peptide, myonectin was robustly secreted into the conditioned medium when expressed in vitro (FIG. 4A). Secreted myonectin contains N-linked glycans; treatment with PNGase F (an N-glycosidase) reduced the apparent molecular weight of myonectin on immunoblot (FIG. 4B), confirming that one or more of the conserved Asn residues are glycosylated. In the absence of reducing agent (β-ME), myonectin migrated as a dimer on immunoblot (FIG. 4C), indicating the presence of intermolecular disulfide bond. […] Formation of oligomers is a biochemical feature shared by all CTRPs and proteins of the C1q family. […] Similarly, when co-expressed in mammalian cells (HEK 293T), myonectin formed heteromeric complexes with CTRP2 and CTRP12, and, to a lesser extent, with CTRP5 and CTRP10 (FIG. 4E).

B1: HA epitope-tagged CTRP5 (other, mouse)
chain: SPPLDDNKIPSLCPGQPGLPGTPGHHGSQGLPGRDGRDGRDGAPGAPGEKGEGGRPGLPGPRGEPGPRGEAGPMGAIGPAGECSVPPRSAFSAKRSESRVPPPADTPLPFDRVLLNEQGHYDPTTGKFTCQVPGVYYFAVHATVYRASLQFDLVKNGQSIASFFQYFGGWPKPASLSGGAMVRLEPEDQVWVQVGVGDYIGIYASIKTDSTFSGFLVYSDWHSSPVFAYPYDVPDYA
notes: Co-expressed with FLAG-tagged myonectin in HEK 293T cells; supernatants were used for immunoprecipitation
B1: the binding result in data set [1] is “binds”.

B2: HA epitope-tagged CTRP2 (other, mouse)
chain: DPMLGAFARRDFQKGGPQLVCSLPGPQGPPGPPGAPGSSGVVGRMGFPGKDGQDGQDGDRGDSGEEGPPGRTGNRGKQGPKGKAGAIGRAGPRGPKGVSGTPGKHGTPGKKGPKGKKGEPGLPGPCSCGSSRAKSAFSVAVTKSYPRERLPIKFDKILMNEGGHYNASSGKFVCSVPGIYYFTYDITLANKHLAIGLVHNGQYRIRTFDANTGNHDVASGSTILALKEGDEVWLQIFYSEQNGLFYDPYWTDSLFTGFLIYADQGDPNEVYPYDVPDYA
notes: as for B1
For the molecule B2, the binding result in data set [1] is recorded as “binds”.
On to B3, for which the binding result in data set [2] is reported as “binds”.

B4: HA epitope-tagged CTRP10 (other, mouse)
chain: HYEMLGTCRMICDPYSVAPAGGPAGAKAPPPGPSTAALEVMQDLSANPPPPFIQGPKGDPGRPGKPGPRGPPGEPGPPGPRGPPGEKGDSGRPGLPGLQLTTSAAGGVGVVSGGTGGGGDTEGEVTSALSAAFSGPKIAFYVGLKSPHEGYEVLKFDDVVTNLGNHYDPTTGKFSCQVRGIYFFTYHILMRGGDGTSMWADLCKNGQVRASAIAQDADQNYDYASNSVVLHLDSGDEVYVKLDGGKAHGGNNNKYSTFSGFLLYPDYPYDVPDYA
notes: as for B1
Regarding B4, the binding result in data set [1] is on record as “binds”.
